The chains are these.
B1: STK38L (parent)
chain: NWKETLVFPPEVPISEKAKDLILR
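Note: lentivirally expressed fusions sorted by FACS into six bins by GFP to DsRed ratio, PSI derived from sequencing read proportions per bin multiplied by bin number.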

In the data set the parent is B1. Put plainly: protein stability index of a GFP-peptide fusion (GPS, HEK-293T) (PSI 1-6); higher = more stable. As to conditions: c terminus: a fixed tail appended.
For the variant NWKETHVFPPEVPISEKAKDLILR [L6H], the protein stability index amounted to 2.61.
As for NWKETEVFPPEVPISEKAKDLILR [L6E], the protein stability index is 3.66.
To NWKETQVFPPEVPISEKAKDLILR [L6Q] belongs 3.87.
Consider NWKETPVFPPEVPISEKAKDLILR [L6P], for which the protein stability index turned out to be 4.16.
To NWKETCVFPPEVPISEKAKDLILR [L6C] belongs 3; to NWKETRVFPPEVPISEKAKDLILR [L6R], 2.83; to NWKETSVFPPEVPISEKAKDLILR [L6S], 3.62.
On to NWKETKVFPPEVPISEKAKDLILR [L6K], for which the protein stability index was found to be 3.53.
Regarding NWKETMVFPPEVPISEKAKDLILR [L6M], the protein stability index stood at 3.31.
NWKETWVFPPEVPISEKAKDLILR [L6W]: the protein stability index is 2.74.
Take NWKETGVFPPEVPISEKAKDLILR [L6G]: the protein stability index stood at 1.5.
With NWKETYVFPPEVPISEKAKDLILR [L6Y], the protein stability index was 3.39.
To NWKETTVFPPEVPISEKAKDLILR [L6T] belongs 3.46; to NWKETIVFPPEVPISEKAKDLILR [L6I], 2.86.
As to NWKETDVFPPEVPISEKAKDLILR [L6D], the protein stability index came out at 3.93.
To NWKETVVFPPEVPISEKAKDLILR [L6V] belongs 3.15; to NWKETAVFPPEVPISEKAKDLILR [L6A], 4.04.
In the case of NWKETNVFPPEVPISEKAKDLILR [L6N] it was 3.55; in that of NWKETLVDPPEVPISEKAKDLILR [F8D], 3.9; in that of NWKETLVAPPEVPISEKAKDLILR [F8A], 4.08.
On to NWKETLVCPPEVPISEKAKDLILR [F8C], for which the protein stability index stood at 4.02.
In the case of NWKMTLVFPPEVPISEKAKDLILR [E4M] it was 2.58.
In the case of NWKQTLVFPPEVPISEKAKDLILR [E4Q] it was 2.62.
In the case of NWKRTLVFPPEVPISEKAKDLILR [E4R] it was 1.97; in that of NWKHTLVFPPEVPISEKAKDLILR [E4H], 2.82; in that of NWKDTLVFPPEVPISEKAKDLILR [E4D], 3.01.
Take NWKTTLVFPPEVPISEKAKDLILR [E4T]: the protein stability index was determined as 2.57.
Take NWKPTLVFPPEVPISEKAKDLILR [E4P]: the protein stability index was determined as 2.85.
Consider NWKCTLVFPPEVPISEKAKDLILR [E4C], for which the protein stability index came to 2.16.
To NWKNTLVFPPEVPISEKAKDLILR [E4N] belongs 1.76; to NWKITLVFPPEVPISEKAKDLILR [E4I], 1.69; to NWKFTLVFPPEVPISEKAKDLILR [E4F], 2.29.
To NWKGTLVFPPEVPISEKAKDLILR [E4G] belongs 2.31.
Turning to NWKWTLVFPPEVPISEKAKDLILR [E4W], the protein stability index turned out to be 1.78.
In the case of NWKKTLVFPPEVPISEKAKDLILR [E4K] it was 2.47; in that of NWKATLVFPPEVPISEKAKDLILR [E4A], 2.1.
NWKVTLVFPPEVPISEKAKDLILR [E4V]: the protein stability index was determined as 2.38.
To NWKYTLVFPPEVPISEKAKDLILR [E4Y] belongs 1.32; to NWKSTLVFPPEVPISEKAKDLILR [E4S], 2.32; to NWGETLVFPPEVPISEKAKDLILR [K3G], 3.17.
In the case of NWMETLVFPPEVPISEKAKDLILR [K3M] it was 2.42.
In the case of NWIETLVFPPEVPISEKAKDLILR [K3I] it was 2.42; in that of NWNETLVFPPEVPISEKAKDLILR [K3N], 3.46.
Consider NWTETLVFPPEVPISEKAKDLILR [K3T], for which the protein stability index is 3.23.
As for NWSETLVFPPEVPISEKAKDLILR [K3S], the protein stability index came out at 3.17.
Take NWPETLVFPPEVPISEKAKDLILR [K3P]: the protein stability index was determined as 3.71.
To NWFETLVFPPEVPISEKAKDLILR [K3F] belongs 1.64; to NWCETLVFPPEVPISEKAKDLILR [K3C], 2.59.
In the case of NWQETLVFPPEVPISEKAKDLILR [K3Q], the protein stability index was 3.77.
To NWRETLVFPPEVPISEKAKDLILR [K3R] belongs 3.12; to NWHETLVFPPEVPISEKAKDLILR [K3H], 3.68; to NWAETLVFPPEVPISEKAKDLILR [K3A], 3.37.
In the case of NWYETLVFPPEVPISEKAKDLILR [K3Y] it was 2.18; in that of NWVETLVFPPEVPISEKAKDLILR [K3V], 2.53; in that of NWDETLVFPPEVPISEKAKDLILR [K3D], 3.69.
Take NWLETLVFPPEVPISEKAKDLILR [K3L]: the protein stability index was 2.02.
NWEETLVFPPEVPISEKAKDLILR [K3E]: the protein stability index was 3.41.
In the case of NWWETLVFPPEVPISEKAKDLILR [K3W] it was 2.07; in that of NEKETLVFPPEVPISEKAKDLILR [W2E], 4.15.
For the variant NMKETLVFPPEVPISEKAKDLILR [W2M], the protein stability index was found to be 3.54.
To NYKETLVFPPEVPISEKAKDLILR [W2Y] belongs 3.25; to NTKETLVFPPEVPISEKAKDLILR [W2T], 4.64; to NAKETLVFPPEVPISEKAKDLILR [W2A], 4.45.
On to NIKETLVFPPEVPISEKAKDLILR [W2I], for which the protein stability index came to 3.32.
For the variant NLKETLVFPPEVPISEKAKDLILR [W2L], the protein stability index is 3.96.
To NPKETLVFPPEVPISEKAKDLILR [W2P] belongs 4.09; to NSKETLVFPPEVPISEKAKDLILR [W2S], 3.01; to NFKETLVFPPEVPISEKAKDLILR [W2F], 3.37.
NDKETLVFPPEVPISEKAKDLILR [W2D]: the protein stability index turned out to be 3.68.
Take NHKETLVFPPEVPISEKAKDLILR [W2H]: the protein stability index stood at 3.46.
In the case of NNKETLVFPPEVPISEKAKDLILR [W2N] it was 4.14.
As for NCKETLVFPPEVPISEKAKDLILR [W2C], the protein stability index was found to be 3.67.
In the case of NRKETLVFPPEVPISEKAKDLILR [W2R] it was 3.39.
In the case of NVKETLVFPPEVPISEKAKDLILR [W2V] it was 3.59.
For the variant NQKETLVFPPEVPISEKAKDLILR [W2Q], the protein stability index amounted to 4.21.
In the case of NWKETLDFPPEVPISEKAKDLILR [V7D] it was 3.81.
To NWKETLNFPPEVPISEKAKDLILR [V7N] belongs 3.63.
As for NWKETLCFPPEVPISEKAKDLILR [V7C], the protein stability index was 3.35.
To NWKETLRFPPEVPISEKAKDLILR [V7R] belongs 2.72; to NWKETLFFPPEVPISEKAKDLILR [V7F], 2.63; to NWKETLLFPPEVPISEKAKDLILR [V7L], 3.65.
Consider NWKETLGFPPEVPISEKAKDLILR [V7G], for which the protein stability index came out at 4.56.
Turning to NWKETLHFPPEVPISEKAKDLILR [V7H], the protein stability index came out at 3.27.
For NWKETLTFPPEVPISEKAKDLILR [V7T], the protein stability index amounted to 3.33.
In the case of NWKETLWFPPEVPISEKAKDLILR [V7W] it was 4.68; in that of NWKETLEFPPEVPISEKAKDLILR [V7E], 3.53.
Consider NWKETLPFPPEVPISEKAKDLILR [V7P], for which the protein stability index amounted to 4.19.
To NWKETLSFPPEVPISEKAKDLILR [V7S] belongs 2.54.
To NWKETLKFPPEVPISEKAKDLILR [V7K] belongs 2.95; to NWKETLIFPPEVPISEKAKDLILR [V7I], 3.09; to NWKETLQFPPEVPISEKAKDLILR [V7Q], 3.95.
In the case of NWKETLYFPPEVPISEKAKDLILR [V7Y] it was 2.9; in that of NWKETLAFPPEVPISEKAKDLILR [V7A], 3.52; in that of NWKETLMFPPEVPISEKAKDLILR [V7M], 2.94.

Source of the values: the supplement of paper PMC10567573.
